The data set addresses 6×His-c-Myc, P01106.

Chain of 6×His-c-Myc, P01106 (P01106 16-454): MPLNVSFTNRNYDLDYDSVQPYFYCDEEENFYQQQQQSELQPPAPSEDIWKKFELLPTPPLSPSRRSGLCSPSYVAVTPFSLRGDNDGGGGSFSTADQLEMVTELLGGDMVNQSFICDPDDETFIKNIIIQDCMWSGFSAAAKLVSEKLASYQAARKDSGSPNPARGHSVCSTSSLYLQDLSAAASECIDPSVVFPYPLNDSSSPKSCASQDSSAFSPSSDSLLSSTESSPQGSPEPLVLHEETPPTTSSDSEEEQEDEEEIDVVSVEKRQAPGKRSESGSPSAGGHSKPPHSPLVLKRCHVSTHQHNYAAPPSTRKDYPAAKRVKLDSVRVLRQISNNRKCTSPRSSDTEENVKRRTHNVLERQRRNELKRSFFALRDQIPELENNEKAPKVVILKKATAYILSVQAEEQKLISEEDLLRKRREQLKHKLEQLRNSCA

B1: GST-MKK7 (protein)
chain: MAASSLEQKLSRLEAKLKQENREARRRIDLNLDISPQRPRPTLQLPLANDGGSRSPSSESSPQHPTPPARPRHMLGLPSTLFTPRSMESIEIDQKLQEIMKQTGYLTIGGQRYQAEINDLENLGEMGSGTCGQVWKMRFRKTGHVIAVKQMRRSGNKEENKRILMDLDVVLKSHDCPYIVQCFGTFITNTDVFIAMELMGTCAEKLKKRMQGPIPERILGKMTVAIVKALYYLKEKHGVIHRDVKPSNILLDERGQIKLCDFGISGRLVDSKAKTRSAGCAAYMAPERIDPPDPTKPDYDIRADVWSLGISLVELATGQFPYKNCKTDFEVLTKVLQEEPPLLPGHMGFSGDFQSFVKDCLTKDHRKRPKYNKLLEHSFIKRYETLEVDVASWFKDVMAKTESPRTSGVLSQPHLPFFR
Take B1: the “in vitro kinase assay, immunoblot for p-c-Myc-Ser62” value is “recombinant MKK7 could directly phosphorylate c-Myc-Ser62”.

Values taken from patent publication US20230139516.
